Data taken from patent US20180086841A1.

What was measured:
Experiment in all cases: flow cytometry on CHO-K1 transfectants, right sub-column
[1] = target: D43A
[2] = target: F28A
[3] = target: G89A
[4] = target: H36A
[5] = target: H60A
[6] = target: I46A
[7] = target: K31A
[8] = target: K38A
[9] = target: N88A
[10] = target: P44A
[11] = target: Q15A
[12] = target: Q91A
[13] = target: R10A
[14] = target: V30A
[15] = target: W13A
W13A, sequence (receptor chain, as listed by the source W13A W13A limits assumed): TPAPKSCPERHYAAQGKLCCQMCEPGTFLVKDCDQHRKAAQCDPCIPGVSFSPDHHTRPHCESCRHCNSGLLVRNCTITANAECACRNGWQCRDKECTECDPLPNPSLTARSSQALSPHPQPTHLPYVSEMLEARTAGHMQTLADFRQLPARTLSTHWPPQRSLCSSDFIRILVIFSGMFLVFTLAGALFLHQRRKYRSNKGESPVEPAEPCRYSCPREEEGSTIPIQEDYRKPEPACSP

1F5-hIgG1 (antibody), sequence (VH): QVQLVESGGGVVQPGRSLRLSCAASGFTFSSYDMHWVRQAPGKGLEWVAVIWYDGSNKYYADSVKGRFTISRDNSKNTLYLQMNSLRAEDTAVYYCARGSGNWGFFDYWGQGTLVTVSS
1F5-hIgG1 (antibody), sequence (VL): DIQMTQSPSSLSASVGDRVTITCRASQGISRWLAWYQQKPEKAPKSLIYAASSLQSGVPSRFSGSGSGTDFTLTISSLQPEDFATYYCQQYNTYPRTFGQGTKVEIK
V30A, sequence (receptor chain, as listed by the source V30A V30A limits assumed): as the sequence (receptor chain, as listed by the source W13A W13A limits assumed) above, with A13W, V30A counted along it
H60A, sequence (receptor chain, as listed by the source H60A H60A limits assumed): as the sequence (receptor chain, as listed by the source W13A W13A limits assumed) above, with A13W, H60A counted along it
F28A, sequence (receptor chain, as listed by the source F28A F28A limits assumed): as the sequence (receptor chain, as listed by the source W13A W13A limits assumed) above, with A13W, F28A counted along it
I46A, sequence (receptor chain, as listed by the source I46A I46A limits assumed): as the sequence (receptor chain, as listed by the source W13A W13A limits assumed) above, with A13W, I46A counted along it
Q15A, sequence (receptor chain, as listed by the source Q15A Q15A limits assumed): as the sequence (receptor chain, as listed by the source W13A W13A limits assumed) above, with A13W, Q15A counted along it
H36A, sequence (receptor chain, as listed by the source H36A H36A limits assumed): as the sequence (receptor chain, as listed by the source W13A W13A limits assumed) above, with A13W, H36A counted along it
G89A, sequence (receptor chain, as listed by the source G89A G89A limits assumed): as the sequence (receptor chain, as listed by the source W13A W13A limits assumed) above, with A13W, G89A counted along it
P44A, sequence (receptor chain, as listed by the source P44A P44A limits assumed): as the sequence (receptor chain, as listed by the source W13A W13A limits assumed) above, with A13W, P44A counted along it
D43A, sequence (receptor chain, as listed by the source D43A D43A limits assumed): as the sequence (receptor chain, as listed by the source W13A W13A limits assumed) above, with A13W, D43A counted along it
K38A, sequence (receptor chain, as listed by the source K38A K38A limits assumed): as the sequence (receptor chain, as listed by the source W13A W13A limits assumed) above, with A13W, K38A counted along it
R10A, sequence (receptor chain, as listed by the source R10A R10A limits assumed): as the sequence (receptor chain, as listed by the source W13A W13A limits assumed) above, with R10A, A13W counted along it
N88A, sequence (receptor chain, as listed by the source N88A N88A limits assumed): as the sequence (receptor chain, as listed by the source W13A W13A limits assumed) above, with A13W, N88A counted along it
Q91A, sequence (receptor chain, as listed by the source Q91A Q91A limits assumed): as the sequence (receptor chain, as listed by the source W13A W13A limits assumed) above, with A13W, Q91A counted along it
K31A, sequence (receptor chain, as listed by the source K31A K31A limits assumed): as the sequence (receptor chain, as listed by the source W13A W13A limits assumed) above, with A13W, K31A counted along it

binding, WT hCD27 = 100 (GM FITC) [1]: 86.1% | binding, WT hCD27 = 100 (GM FITC) [2]: 46.2% | binding, WT hCD27 = 100 (GM FITC) [3]: 68.5% | binding, WT hCD27 = 100 (GM FITC) [4]: 80% | binding, WT hCD27 = 100 (GM FITC) [5]: 110% | binding, WT hCD27 = 100 (GM FITC) [6]: 69.7% | binding, WT hCD27 = 100 (GM FITC) [7]: 120% | binding, WT hCD27 = 100 (GM FITC) [8]: 94.2% | binding, WT hCD27 = 100 (GM FITC) [9]: 119% | binding, WT hCD27 = 100 (GM FITC) [10]: 83.7% | binding, WT hCD27 = 100 (GM FITC) [11]: 127% | binding, WT hCD27 = 100 (GM FITC) [12]: 115% | binding, WT hCD27 = 100 (GM FITC) [13]: 113% | binding, WT hCD27 = 100 (GM FITC) [14]: 88.9% | binding, WT hCD27 = 100 (GM FITC) [15]: 82.8%
Substance: 1F5-hIgG1 (antibody)
